Laboratory results from the supplement of paper PMC9170038.

Experiments:
MS2 coat protein [1] = experiment: apparent KD of MS2 coat protein, switch OFF state (with FMN for OFF switches, without FMN for ON switches); designed switch direction (-1 OFF switch, 1 ON switch): 1; higher = weaker reporter binding; conditions: FMN input: 0 or 200 uM; Eterna round: R93 (includes R88 designs)
Procedure, shortened: (§1)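 Normalised binding curves from single clusters were fitted, and the median fit for each design is given as apparent KD. The clusters held designed RNA switches transcribed on-chip from Illumina sequencing clusters. These were titrated with SNAP-549-labelled MS2 coat protein (twofold steps from 0.7 or 1.5 nM to 3 µM, 0.8–1.5 h to 10–20 min per step) in 100 mM Tris-HCl pH 7.5, 80 mM KCl, 4 mM MgCl2, without or with constant ligand.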

MS2 coat protein [2] = experiment: apparent KD of MS2 coat protein, switch ON state; designed switch direction (-1 OFF switch, 1 ON switch): 1; higher = weaker reporter binding; conditions: FMN input: 0 or 200 uM; Eterna round: R93 (includes R88 designs)
Procedure, shortened: as §1

Sequence	apparent KD of MS2 coat protein (MS2 coat protein [1]) [µM]	apparent KD of MS2 coat protein (MS2 coat protein [2]) [µM]
AGUCCACAUGAGGAUCACCCAUGUCUGGAGAAGACAGGAUAUAAGGAAAAAAAAAAAAACUUAGAAGGGUCAAAAA [Bexeusisus]	0.0495	0.0268
AUAAAACAUGAGGAUCACCCAUGUAGACAUAUGGGAGGAUAUACUAGAUCGAAAGAUCUAGUAGAAGGCCUUUAUA [JL Mod of Eli 8]	0.0542	0.0192
AUAAAACAUGAGGAUCACCCAUGUGAAAACGUGGGAGGAUAUACGUAGACGAAAGUCGACGUAGAAGGCCUAAAAG [Same State 1.4n.1 (Mat - Mod of Eli - )]	0.197	0.119
AUAAAAGAAGCGAAGGAUAUCCAAAAACCAACAUGAGGAUCACCCAUGUAAAGAAAGAAAAAAUGGGAGAAGGUCGCAAAGAAUA [73%, More Fisker Same State 2, D3, 8]	0.0177	0.0118
AUAAAAGAAGCGAAGGAUAUCCAAAGAACCACAUGAGGAUCACCCAUGUAAAGAAAGAAAAAGUGGGAGAAGGUCGCAAAGAAUA [73%, More Fisker Same State 2, D3, 5]	0.0537	0.0266
AUAAAUAAAAUCGAGGAUAUCCAAAAAAAAACAUGAGGAUCACCCAUGUAAAAGAAAAUAAUAUGGGAGAAGGCGAAAAAUAAAU [SS2 M 5]	0.0592	0.0368
AUAAAUAAUGGUAAGGAUAUCCAAAAGAAAACAUGAGGAUCACCCAUGUAAAAGAAAAUAGUGUGGGAGAAGGUACCAUAUAAAU [SS2 M 15]	0.0416	0.0186
AUAACACAUGAGGAUCACCCAUGUAGAAACAAGUCAGGAUAUGCGACCUCAUGAAAUAAAGCAGAAGGGACACUAA [SS 1 Tesla 5]	0.15	0.0315
AUAAGACAUGAGGAUCACCCAUGUAUUAGAGCAUGAGGAUAUAUGAAUAGUAAUAGGAGGAUAGAAGGCAUGGUUG [JR_SS001_Sub1218]	0.138	0.0926
AUAAUAAUAAGAUAGGAUAUACUAAAGUAAACAUGAGGAUCACCCAUGUAAAGAAAAAAACUCAUGUAGAAGGGUCAUAAAUAAA [moonwalk 1]	0.0486	0.0463
AUAUAUAAAAGGUAGGAUAUUCUAAAAUAAACAUGAGGAUCACCCAUGUAAAAAAAGAAACUCAUGGAGAAGGACCAUAUAUAUA [ss2 6th modifying Eli's mod of Tesla]	0.0445	0.0315
AUAUAUAUAAGGUAGGAUAUCCAAUAAACCACAUGAGGAUCACCCAUGUAAAGAAAGAAAAAAUGGGAGAAGGACCAUAUAUAUA [77%, More Tesla, 6]	0.0275	0.0154
AUAUAUAUAAGGUAGGAUAUCCAAUAAUCCACAUGAGGAUCACCCAUGUAAAGAAAGAAAAAGUGGGAGAAGGACCAUAUAUAUA [77%, More Tesla, 7]	0.034	0.0176
AUAUAUAUAAGGUAGGAUAUGCUAAAGUAAACAUGAGGAUCACCCAUGUAAAGAAAGAAACUCAUGUAGAAGGGCCAUAUAUAUA [viburnum 6]	0.408	0.163
AUAUGACAUGAGGAUCACCCAUGUAUUCGAGCAUGAGGAUAUAUGACUAGUCAUAGGAGGAUAGAAGGCAUGGUUG [JR_SS001_Sub1217]	0.169	0.0762
AUAUGGGCCCAUCAGGAUAUGUUCGGCGGAACAUGAGGAUCACCCAUGUGACAAAAGACGCCCACGCAGAAGGGAUUACAGGCAA [Anistera]	0.0497	0.022
AUGAUACAUGAGGAUCACCCAUGUCACCUCACACGAGGAUAUCUGUGCAGUACUCAGUACGGAGAAGGCGUGGAAA [Same State 1.2d (Same State of Confusion2 - KL)]	0.0781	0.0202
AUGGUCAAGUGUGAGGAUAUCCAUGCUCCCACAUGAGGAUCACCCAUGUCUUAAAGGGCGUAAAGGGAGAAGGUACGAACGCCAC [Edatxein]	0.0783	0.0407
AUUAGACAUGAGGAUCACCCAUGUAGGCAGUCAUGAGGAUAUGGACAAGGUGCUCAAGGUCCAGAAGGCAUACGCC [Maxeus]	0.0576	0.0148
AUUUAACAUGAGGAUCACCCAUGUAGGAAUACUGCAGGAUAUCGACACGAAAAUACGUGUCGAGAAGGGCAUGAAA [SS1 MT 25]	0.022	0.0138
CAGGACCUAGGAUAGGAUAUAUGAAUAAUUACAUGAGGAUCACCCAUGUCCAUUUAUAUGGGAACAUAGAAGGGUUCUGGUUAUG [Mat - Same state - Malcolm Mod - D134]	0.0503	0.0208
